Source: paper PMC3823998, “Structural and Functional Characterization of the Redβ Recombinase from Bacteriophage λ” (PLoS ONE, 2013)

Target: T1, Redβ WT (Bacteriophage λ (Enterobacteria phage λ), UniProt P03698 1-261)
T1 sequence: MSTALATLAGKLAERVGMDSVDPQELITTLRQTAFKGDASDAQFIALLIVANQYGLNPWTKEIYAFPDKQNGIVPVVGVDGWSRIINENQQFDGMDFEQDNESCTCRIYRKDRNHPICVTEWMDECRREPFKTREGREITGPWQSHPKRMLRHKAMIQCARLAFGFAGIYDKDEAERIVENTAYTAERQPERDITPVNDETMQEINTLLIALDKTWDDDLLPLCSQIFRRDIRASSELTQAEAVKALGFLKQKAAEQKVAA
Experiment: EMSA; glutaraldehyde-fixed; ssDNA EMSA: 10 nM DNA, 50 mM potassium phosphate pH 6.0, 5 mM EDTA, 5% glycerol, 0.1 mg/ml BSA, 37°C, 40 min, then 0.1% glutaraldehyde; second-strand EMSA: 5 nM each strand, 20 mM Tris-HCl pH 7.5, 5 mM MgCl2, 1 mM DTT, 0.1 mg/ml BSA, 37°C
Conditions: protein: recombinant; tags: N-terminal His6 removed by thrombin; Gly-Ser-His left before Met1; label: 5' Cy3

TGCGGATGGCTTAGAGCTTAATTGCTGAATCTGGTGCTGTAGCTCAACAT (ssDNA) [50-minus ssDNA]: binds.
